The nature of the data set: protein stability index of a GFP-peptide fusion (yeast GPS) (PSI 1-4); higher = more stable; sorted into four equal gates, so the index is relative within each strain. Summed up:
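The protein stability index combines read frequencies across sorting gates, each weighted by its gate number and then summed. To obtain those frequencies, a pooled yeast library of GFP fusions to tiled 17-residue yeast protein peptides, on a plasmid also expressing Cherry, was grown to mid-log phase in leucine-free medium. The cells were sorted into four equal gates by GFP/Cherry ratio before plasmid amplification by PCR and Illumina sequencing.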

± gives the uncertainty stated by the source.

Protein stability index data for 38 sequences are collected here from the supplement of paper PMC9732359.

On to STGLKSASDALKGRVVE [RPS1A], for which the protein stability index (doa10∆) turned out to be 3.29 ± 0.078, the protein stability index (pdr5∆) came to 3.31 ± 0.071, the protein stability index (san1∆) amounted to 3.48 ± 0.044 and the protein stability index (ubr1∆) came to 3.37 ± 0.084.

For the sequence LSTLRMEADPSLHPLFE [RPN9], the protein stability index by setting is: (doa10∆) 2.54 ± 0.057; (pdr5∆) 2.33 ± 0.042; (san1∆) 2.18 ± 0.096; (ubr1∆) 2.41 ± 0.044.

Turning to ITDKTIESIVNLAPKLR [GRR1], the protein stability index was determined as 2.81 ± 0.081 (doa10∆), 2.27 ± 0.059 (pdr5∆), 1.83 ± 0.086 (san1∆) and 2.76 ± 0.037 (ubr1∆).

Take TLSNAERAKNVNGLLQV [GAL11]: the protein stability index is, setting by setting: (doa10∆) 3.22 ± 0.14; (pdr5∆) 3.23 ± 0.1; (san1∆) 3.08 ± 0.26; (ubr1∆) 3 ± 0.098.

As to EKKPAAKKTSTSTDGKK [HTB1], the protein stability index (doa10∆) worked out at 3.33 ± 0.21, the protein stability index (pdr5∆) turned out to be 3.07 ± 0.11, the protein stability index (san1∆) stood at 2.85 ± 0.18 and the protein stability index (ubr1∆) was determined as 3.65 ± 0.25.

Regarding HDNHGNKLGNKRLTEDE [CDC53], the protein stability index amounted to 2.51 ± 0.091 (doa10∆), 2.84 ± 0.069 (pdr5∆), 2.37 ± 0.052 (san1∆) and 3.17 ± 0.06 (ubr1∆).

Take NPKYDTSNASMNTTLGS [YAR002W/NUP60]: the protein stability index by setting is: (doa10∆) 3.12 ± 0.045; (pdr5∆) 3.15 ± 0.044; (san1∆) 3.12 ± 0.034; (ubr1∆) 3.14 ± 0.047.

Take SGDKEATAPLIQRKNKK [RPN8]: the protein stability index (doa10∆) turned out to be 3.39 ± 0.2, the protein stability index (pdr5∆) was found to be 3.35 ± 0.14 and the protein stability index (san1∆) came out at 3.25 ± 0.095.

Regarding KGETNSEISIIDATLKE [RRP45], the protein stability index runs as follows: (doa10∆) 2.92 ± 0.074; (pdr5∆) 3.08 ± 0.068; (san1∆) 3.31 ± 0.072; (ubr1∆) 3.19 ± 0.059.

In the case of APSDFSENQRQIFCVFS [GRR1], the protein stability index was 2.93 ± 0.071 (doa10∆), 2.58 ± 0.078 (pdr5∆), 2.76 ± 0.064 (san1∆) and 2.65 ± 0.057 (ubr1∆).

In turn, TVSPDFVAATTNAGYTI [FAS1] showed a protein stability index (doa10∆) of 2.71 ± 0.065, a protein stability index (pdr5∆) of 2.71 ± 0.053, a protein stability index (san1∆) of 2.32 ± 0.12 and a protein stability index (ubr1∆) of 2.56 ± 0.058.

Turning to QQQQQFRHHVQIQQQQQ [SNF5], the protein stability index reads like this: (doa10∆) 1.3 ± 0.033; (pdr5∆) 1.76 ± 0.036; (san1∆) 1.45 ± 0.086; (ubr1∆) 1.32 ± 0.025.

SYINVTFRAVVFKPFLG [RPC25]: the protein stability index is, setting by setting: (doa10∆) 1.52 ± 0.084; (pdr5∆) 1.95 ± 0.061; (san1∆) 2.26 ± 0.079; (ubr1∆) 1.94 ± 0.056.

With LTVAMYINSDSVNPAML [RPO31], the protein stability index reads like this: (doa10∆) 2.4 ± 0.11; (pdr5∆) 2.47 ± 0.11; (san1∆) 2.69 ± 0.14; (ubr1∆) 2.68 ± 0.082.

Consider DKVTSQAVNNLIKTLST [RPP1], for which the protein stability index by setting is: (doa10∆) 2.53 ± 0.059; (pdr5∆) 2.89 ± 0.078; (san1∆) 2.47 ± 0.074; (ubr1∆) 2.62 ± 0.048.

With KLIIHRKNDNANDHDES [SMC3], the protein stability index reads like this: (pdr5∆) 1.73 ± 0.21; (ubr1∆) 1.36 ± 0.11.

Take SDAEEEEGEYKNAANTE [ISW2]: the protein stability index runs as follows: (doa10∆) 3.06 ± 0.14; (pdr5∆) 3.44 ± 0.14; (san1∆) 3 ± 0.17; (ubr1∆) 3.3 ± 0.093.

Consider SHLYKARLDGHDFLFNT [RPN14], for which the protein stability index by setting is: (doa10∆) 3.37 ± 0.13; (pdr5∆) 2.88 ± 0.076; (san1∆) 3.13 ± 0.07; (ubr1∆) 2.85 ± 0.047.

As for KNRSTIFWGIRLAKSTE [BRR2], the protein stability index by setting is: (doa10∆) 3.04 ± 0.29; (pdr5∆) 2.97 ± 0.16; (ubr1∆) 2.95 ± 0.17.

With VQDLGSAISVTNVEDPL [SIR2], the protein stability index reads like this: (doa10∆) 2.34 ± 0.069; (pdr5∆) 1.97 ± 0.064; (san1∆) 2.47 ± 0.13; (ubr1∆) 2.21 ± 0.054.

DTISAITHQLNNKFANK [RPC25]: the protein stability index (pdr5∆) was 2.42 ± 0.16.

With VNAPLPTPFKVDDNVDF [RPN2], the protein stability index by setting is: (doa10∆) 2.91 ± 0.077; (pdr5∆) 2.75 ± 0.051; (san1∆) 2.74 ± 0.08; (ubr1∆) 2.96 ± 0.086.

VVQDSQTATQLLERGRL [SMC2]: the protein stability index by setting is: (doa10∆) 2.9 ± 0.053; (pdr5∆) 2.87 ± 0.08; (san1∆) 2.81 ± 0.054; (ubr1∆) 2.5 ± 0.058.

KSWLNRLNNWLFGWNDL [YMR153W/NUP53]: the protein stability index is, setting by setting: (doa10∆) 2.63 ± 0.057; (pdr5∆) 2.33 ± 0.045; (san1∆) 2.03 ± 0.065; (ubr1∆) 2.68 ± 0.04.

Turning to TNILTKVDINADSAVNR [PRP28], the protein stability index was found to be 3.37 ± 0.062 (doa10∆), 3.4 ± 0.074 (pdr5∆), 3.3 ± 0.055 (san1∆) and 3.31 ± 0.059 (ubr1∆).

Turning to IKDLQRAINKVLCTRLR [SIR2], the protein stability index (doa10∆) was 1.78 ± 0.063, the protein stability index (pdr5∆) came out at 1.33 ± 0.06, the protein stability index (san1∆) was found to be 1.18 ± 0.11 and the protein stability index (ubr1∆) was determined as 1.54 ± 0.045.

For the sequence EVAQYLQEIYQTDAIKS [RPN5], the protein stability index runs as follows: (doa10∆) 2.3 ± 0.084; (pdr5∆) 2.44 ± 0.099; (san1∆) 2.47 ± 0.1; (ubr1∆) 2.29 ± 0.13.

Regarding SAGRIESNNPSHDASRS [SIR4], the protein stability index amounted to 2.85 ± 0.21 (doa10∆), 2.3 ± 0.11 (pdr5∆) and 2.98 ± 0.17 (ubr1∆).

With MKEDGLSFVDIVLSKAA [SIR4], the protein stability index by setting is: (doa10∆) 1.88 ± 0.1; (pdr5∆) 2.8 ± 0.07; (san1∆) 2.74 ± 0.12; (ubr1∆) 2.22 ± 0.053.

For FSKIAEYYRIQKQLPQK [ESC2], the protein stability index amounted to 3.18 ± 0.16 (doa10∆), 2.99 ± 0.15 (pdr5∆), 3.26 ± 0.088 (san1∆) and 3.19 ± 0.17 (ubr1∆).

On to ELQEKNVELLNCIRILA [YIL149C/MLP2], for which the protein stability index runs as follows: (doa10∆) 2.19 ± 0.054; (pdr5∆) 1.95 ± 0.065; (san1∆) 1.73 ± 0.085; (ubr1∆) 1.68 ± 0.039.

For QPSQQPQQAQQQPNPLH [GAL11], the protein stability index is 2.91 ± 0.05 (doa10∆), 2.95 ± 0.037 (pdr5∆), 2.85 ± 0.035 (san1∆) and 2.97 ± 0.034 (ubr1∆).

Take STPNFGGNSNKSPPQFF [SIN4]: the protein stability index reads like this: (doa10∆) 2.88 ± 0.039; (pdr5∆) 3.1 ± 0.043; (san1∆) 2.89 ± 0.03; (ubr1∆) 2.9 ± 0.032.

In turn, GRPQRKMMSFQANPTEE [RPB5] displayed a protein stability index (pdr5∆) of 3.2 ± 0.17, a protein stability index (san1∆) of 3.44 ± 0.094 and a protein stability index (ubr1∆) of 3.53 ± 0.19.

Consider TYIKSEITQQEKGLNEL [SMC4], for which the protein stability index runs as follows: (doa10∆) 1.88 ± 0.066; (pdr5∆) 1.7 ± 0.059; (san1∆) 2.75 ± 0.092; (ubr1∆) 1.55 ± 0.051.

Consider KSPEQCILRFLQLPIED [SWI3], for which the protein stability index turned out to be 1.81 ± 0.067 (doa10∆), 2.3 ± 0.062 (pdr5∆), 1.76 ± 0.12 (san1∆) and 1.41 ± 0.038 (ubr1∆).

With TENAIEEKVIERAAQKL [ISW2], the protein stability index runs as follows: (doa10∆) 2.61 ± 0.095; (pdr5∆) 2.74 ± 0.17; (ubr1∆) 2.79 ± 0.051.

For ALVFAALEHLKNLSLLA [SRP68], the protein stability index came out at 2.79 ± 0.12 (doa10∆), 2.75 ± 0.14 (pdr5∆), 3.07 ± 0.065 (san1∆) and 2.92 ± 0.096 (ubr1∆).
